From paper PMC5262380, “Structural insights into the mechanism of the DEAH-box RNA helicase Prp43” (eLife, 2017)

Assays:
[1] = substrate: Nc1ncnc2c1ncn2[C@@H]1O[C@H](COP(=O)(O)OP(=O)(O)OP(=O)(O)O)[C@@H](O)[C@H]1O; assay: NADH-coupled ATPase assay (pyruvate kinase / lactate dehydrogenase); assay type: biochemical, Thermochaetoides thermophila; conditions: no RNA, ctPfa1-GP in five-fold excess, pH 7.5, 150 mM KCl, 3 mM MgCl2, 25 °C
Excerpt: NADH-coupled ATPase assay (pyruvate kinase / lactate dehydrogenase) on ctPrp43 + ctPfa1-GP

[2] = substrate: Nc1ncnc2c1ncn2[C@@H]1O[C@H](COP(=O)(O)OP(=O)(O)OP(=O)(O)O)[C@@H](O)[C@H]1O; assay: as above; assay type: biochemical, Thermochaetoides thermophila; conditions: no RNA, no G-patch, pH 7.5, 150 mM KCl, 3 mM MgCl2, 25 °C
Excerpt: NADH-coupled ATPase assay (pyruvate kinase / lactate dehydrogenase) on ctPrp43

[3] = ctPrp43-IDSB, mainly oxidized (internal disulfide bond)

B1: ctPrp43 + ctPfa1-GP (Thermochaetoides thermophila DSM 1495; F181C/N623C) (protein)
chain: MADITKGTKRLSGEAEGSQDSKRVKTNGDKMDAKNPYLAHLEEKPEADFESLLDKLERRNTTAKQAEAVEDSDINPWTGQRHSERYFKILKARRKLPVNKQRQEFLDLYHNNQILVFVGETGSGKTTQIPQYVLYDELPHQTGKLIACTQPRRVAAMSVAQRVADELDVKLGEEVGYSIRCENKTSSKTLLKYMTDGQLLREAMHDRDMSRYSCIILDEAHERTLATDILMALLKQLSERRKDLKIIVMSATLDAQKFQSYFFNAPLLAVPGRTHPVEIFYTPEAERDYVEAAIRTVLQIHACEPEGDILLFLTGEEEIEDACRRISLEVDEMIRESDAGPMSVYPLYGTLPPHQQQRIFEKAPQPFRPGGRPGRKCIVATNIAETSLTIDGIVYVVDPGFSKQKIYNPRTRVESLLVSPISKASAQQRAGRAGRTRPGKCFRLYTEEAFKKELIEQTYPEILRSNLSNTVLELKKLGVEDLVHFDLMDPPAPETMMRALEELNYLACLDDDGELTPLGNLASEFPLDPALAVMLISSPEFYCSNEILSITSLLSVPQIWVRPANARKRADEMKAQFAHPDGDHLTLLNAYHAYKGAEARGEDMKKWCHEHFLSYRHLSSADCVRAQLKKIMETHGIELVSTPFHDKNYYTNIRRALLAGFFMQVAMRESSNSKVYKTVKDEQLVLIHPSTTVTTPYEWVVYNEFVLTTKQYVRTVTNIRPEWLLEIAPVYYDLSTFQKGEIKNALTRVAEKIRRQQAMKASKA
notes: full-length Prp43 (GST tag removed) plus G-patch fragment ctPfa1(662-742) in five-fold excess, both recombinant, tags cut; with Uncharacterized protein (G-patch protein Pfa1)
Work on B1 yielded a Km [1, 3] of 29.04 ± 1.35 µM and a kcat [1, 3] of 3.32 s⁻¹.

B2: ctPrp43 (Thermochaetoides thermophila DSM 1495; T350G/Y348G) (protein)
chain: MADITKGTKRLSGEAEGSQDSKRVKTNGDKMDAKNPYLAHLEEKPEADFESLLDKLERRNTTAKQAEAVEDSDINPWTGQRHSERYFKILKARRKLPVNKQRQEFLDLYHNNQILVFVGETGSGKTTQIPQYVLYDELPHQTGKLIACTQPRRVAAMSVAQRVADELDVKLGEEVGYSIRFENKTSSKTLLKYMTDGQLLREAMHDRDMSRYSCIILDEAHERTLATDILMALLKQLSERRKDLKIIVMSATLDAQKFQSYFFNAPLLAVPGRTHPVEIFYTPEAERDYVEAAIRTVLQIHACEPEGDILLFLTGEEEIEDACRRISLEVDEMIRESDAGPMSVYPLGGGLPPHQQQRIFEKAPQPFRPGGRPGRKCIVATNIAETSLTIDGIVYVVDPGFSKQKIYNPRTRVESLLVSPISKASAQQRAGRAGRTRPGKCFRLYTEEAFKKELIEQTYPEILRSNLSNTVLELKKLGVEDLVHFDLMDPPAPETMMRALEELNYLACLDDDGELTPLGNLASEFPLDPALAVMLISSPEFYCSNEILSITSLLSVPQIWVRPANARKRADEMKAQFAHPDGDHLTLLNAYHAYKGAEARGEDMKKWCHEHFLSYRHLSSADNVRAQLKKIMETHGIELVSTPFHDKNYYTNIRRALLAGFFMQVAMRESSNSKVYKTVKDEQLVLIHPSTTVTTPYEWVVYNEFVLTTKQYVRTVTNIRPEWLLEIAPVYYDLSTFQKGEIKNALTRVAEKIRRQQAMKASKA
notes: full length (residues 1-764), recombinant, GST tag removed, expressed as previously described
In the case of B2, the Km ([2]; ctPrp43-HL) is reported as 14.31 ± 0.71 µM and the kcat ([2]; ctPrp43-HL) is reported as 0.103 s⁻¹.

B3: ctPrp43 + ctPfa1-GP (Thermochaetoides thermophila DSM 1495; T350G/Y348G) (protein)
chain: MADITKGTKRLSGEAEGSQDSKRVKTNGDKMDAKNPYLAHLEEKPEADFESLLDKLERRNTTAKQAEAVEDSDINPWTGQRHSERYFKILKARRKLPVNKQRQEFLDLYHNNQILVFVGETGSGKTTQIPQYVLYDELPHQTGKLIACTQPRRVAAMSVAQRVADELDVKLGEEVGYSIRFENKTSSKTLLKYMTDGQLLREAMHDRDMSRYSCIILDEAHERTLATDILMALLKQLSERRKDLKIIVMSATLDAQKFQSYFFNAPLLAVPGRTHPVEIFYTPEAERDYVEAAIRTVLQIHACEPEGDILLFLTGEEEIEDACRRISLEVDEMIRESDAGPMSVYPLGGGLPPHQQQRIFEKAPQPFRPGGRPGRKCIVATNIAETSLTIDGIVYVVDPGFSKQKIYNPRTRVESLLVSPISKASAQQRAGRAGRTRPGKCFRLYTEEAFKKELIEQTYPEILRSNLSNTVLELKKLGVEDLVHFDLMDPPAPETMMRALEELNYLACLDDDGELTPLGNLASEFPLDPALAVMLISSPEFYCSNEILSITSLLSVPQIWVRPANARKRADEMKAQFAHPDGDHLTLLNAYHAYKGAEARGEDMKKWCHEHFLSYRHLSSADNVRAQLKKIMETHGIELVSTPFHDKNYYTNIRRALLAGFFMQVAMRESSNSKVYKTVKDEQLVLIHPSTTVTTPYEWVVYNEFVLTTKQYVRTVTNIRPEWLLEIAPVYYDLSTFQKGEIKNALTRVAEKIRRQQAMKASKA
notes: as for B1
Work on B3 yielded a Km ([1]; ctPrp43-HL) of 14.38 ± 0.89 µM and a kcat ([1]; ctPrp43-HL) of 1.44 s⁻¹.

B4: ctPrp43 (Thermochaetoides thermophila DSM 1495; F181G/R180G/T350G/Y348G) (protein)
chain: MADITKGTKRLSGEAEGSQDSKRVKTNGDKMDAKNPYLAHLEEKPEADFESLLDKLERRNTTAKQAEAVEDSDINPWTGQRHSERYFKILKARRKLPVNKQRQEFLDLYHNNQILVFVGETGSGKTTQIPQYVLYDELPHQTGKLIACTQPRRVAAMSVAQRVADELDVKLGEEVGYSIGGENKTSSKTLLKYMTDGQLLREAMHDRDMSRYSCIILDEAHERTLATDILMALLKQLSERRKDLKIIVMSATLDAQKFQSYFFNAPLLAVPGRTHPVEIFYTPEAERDYVEAAIRTVLQIHACEPEGDILLFLTGEEEIEDACRRISLEVDEMIRESDAGPMSVYPLGGGLPPHQQQRIFEKAPQPFRPGGRPGRKCIVATNIAETSLTIDGIVYVVDPGFSKQKIYNPRTRVESLLVSPISKASAQQRAGRAGRTRPGKCFRLYTEEAFKKELIEQTYPEILRSNLSNTVLELKKLGVEDLVHFDLMDPPAPETMMRALEELNYLACLDDDGELTPLGNLASEFPLDPALAVMLISSPEFYCSNEILSITSLLSVPQIWVRPANARKRADEMKAQFAHPDGDHLTLLNAYHAYKGAEARGEDMKKWCHEHFLSYRHLSSADNVRAQLKKIMETHGIELVSTPFHDKNYYTNIRRALLAGFFMQVAMRESSNSKVYKTVKDEQLVLIHPSTTVTTPYEWVVYNEFVLTTKQYVRTVTNIRPEWLLEIAPVYYDLSTFQKGEIKNALTRVAEKIRRQQAMKASKA
notes: as for B2
B4 was tested, and the Km ([2]; ctPrp43-HT&HL) was 16.72 ± 1.49 µM and the kcat ([2]; ctPrp43-HT&HL) was 0.127 s⁻¹.

B5: ctPrp43 + ctPfa1-GP (Thermochaetoides thermophila DSM 1495; F181G/R180G/T350G/Y348G) (protein)
chain: MADITKGTKRLSGEAEGSQDSKRVKTNGDKMDAKNPYLAHLEEKPEADFESLLDKLERRNTTAKQAEAVEDSDINPWTGQRHSERYFKILKARRKLPVNKQRQEFLDLYHNNQILVFVGETGSGKTTQIPQYVLYDELPHQTGKLIACTQPRRVAAMSVAQRVADELDVKLGEEVGYSIGGENKTSSKTLLKYMTDGQLLREAMHDRDMSRYSCIILDEAHERTLATDILMALLKQLSERRKDLKIIVMSATLDAQKFQSYFFNAPLLAVPGRTHPVEIFYTPEAERDYVEAAIRTVLQIHACEPEGDILLFLTGEEEIEDACRRISLEVDEMIRESDAGPMSVYPLGGGLPPHQQQRIFEKAPQPFRPGGRPGRKCIVATNIAETSLTIDGIVYVVDPGFSKQKIYNPRTRVESLLVSPISKASAQQRAGRAGRTRPGKCFRLYTEEAFKKELIEQTYPEILRSNLSNTVLELKKLGVEDLVHFDLMDPPAPETMMRALEELNYLACLDDDGELTPLGNLASEFPLDPALAVMLISSPEFYCSNEILSITSLLSVPQIWVRPANARKRADEMKAQFAHPDGDHLTLLNAYHAYKGAEARGEDMKKWCHEHFLSYRHLSSADNVRAQLKKIMETHGIELVSTPFHDKNYYTNIRRALLAGFFMQVAMRESSNSKVYKTVKDEQLVLIHPSTTVTTPYEWVVYNEFVLTTKQYVRTVTNIRPEWLLEIAPVYYDLSTFQKGEIKNALTRVAEKIRRQQAMKASKA
notes: as for B1
In the case of B5, the Km ([1]; ctPrp43-HT&HL) is reported as 25.17 ± 1.37 µM and the kcat ([1]; ctPrp43-HT&HL) is reported as 1.89 s⁻¹.

B6: ctPrp43 (Thermochaetoides thermophila DSM 1495; F181C/N623C) (protein)
chain: MADITKGTKRLSGEAEGSQDSKRVKTNGDKMDAKNPYLAHLEEKPEADFESLLDKLERRNTTAKQAEAVEDSDINPWTGQRHSERYFKILKARRKLPVNKQRQEFLDLYHNNQILVFVGETGSGKTTQIPQYVLYDELPHQTGKLIACTQPRRVAAMSVAQRVADELDVKLGEEVGYSIRCENKTSSKTLLKYMTDGQLLREAMHDRDMSRYSCIILDEAHERTLATDILMALLKQLSERRKDLKIIVMSATLDAQKFQSYFFNAPLLAVPGRTHPVEIFYTPEAERDYVEAAIRTVLQIHACEPEGDILLFLTGEEEIEDACRRISLEVDEMIRESDAGPMSVYPLYGTLPPHQQQRIFEKAPQPFRPGGRPGRKCIVATNIAETSLTIDGIVYVVDPGFSKQKIYNPRTRVESLLVSPISKASAQQRAGRAGRTRPGKCFRLYTEEAFKKELIEQTYPEILRSNLSNTVLELKKLGVEDLVHFDLMDPPAPETMMRALEELNYLACLDDDGELTPLGNLASEFPLDPALAVMLISSPEFYCSNEILSITSLLSVPQIWVRPANARKRADEMKAQFAHPDGDHLTLLNAYHAYKGAEARGEDMKKWCHEHFLSYRHLSSADCVRAQLKKIMETHGIELVSTPFHDKNYYTNIRRALLAGFFMQVAMRESSNSKVYKTVKDEQLVLIHPSTTVTTPYEWVVYNEFVLTTKQYVRTVTNIRPEWLLEIAPVYYDLSTFQKGEIKNALTRVAEKIRRQQAMKASKA
notes: as for B2
In the case of B6, the Km [2, 3] is reported as 16.23 ± 2.38 µM and the kcat [2, 3] is reported as 0.084 s⁻¹.
